The target in experiment [1] is MUC1-CD cytoplasmic domain (Homo sapiens) (UniProt P15941). The following applies: cited from earlier work.
Experiment [2] deals with T1, His-tagged MUC1 cytoplasmic domain (UniProt P15941 1182-1255).
T1 sequence (looked up): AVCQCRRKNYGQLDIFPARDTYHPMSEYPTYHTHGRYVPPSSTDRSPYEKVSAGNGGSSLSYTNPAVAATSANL
In words: SPR. A general note: Surface plasmon resonance follows binding to a sensor surface in real time, without labels.

As a reminder, the Kd is the equilibrium constant for the complex coming apart. “MUC1-CD cytoplasmic domain (from UniProt P15941)”: the Kd in experiment [1] is 33 nM.
On to CQCRRKNYGQLDIFP (poly D-arginine transduction domain (D-residues)) [GO-201], for which, in experiment [2], the Kd is 30 nM.
